# Source: article PMC7005744, “Cis- and trans-regulations of pre-mRNA splicing by RNA editing enzymes influence cancer development”
# T1: ADAR1 (UniProt P55265 296-1226)
# T1 sequence: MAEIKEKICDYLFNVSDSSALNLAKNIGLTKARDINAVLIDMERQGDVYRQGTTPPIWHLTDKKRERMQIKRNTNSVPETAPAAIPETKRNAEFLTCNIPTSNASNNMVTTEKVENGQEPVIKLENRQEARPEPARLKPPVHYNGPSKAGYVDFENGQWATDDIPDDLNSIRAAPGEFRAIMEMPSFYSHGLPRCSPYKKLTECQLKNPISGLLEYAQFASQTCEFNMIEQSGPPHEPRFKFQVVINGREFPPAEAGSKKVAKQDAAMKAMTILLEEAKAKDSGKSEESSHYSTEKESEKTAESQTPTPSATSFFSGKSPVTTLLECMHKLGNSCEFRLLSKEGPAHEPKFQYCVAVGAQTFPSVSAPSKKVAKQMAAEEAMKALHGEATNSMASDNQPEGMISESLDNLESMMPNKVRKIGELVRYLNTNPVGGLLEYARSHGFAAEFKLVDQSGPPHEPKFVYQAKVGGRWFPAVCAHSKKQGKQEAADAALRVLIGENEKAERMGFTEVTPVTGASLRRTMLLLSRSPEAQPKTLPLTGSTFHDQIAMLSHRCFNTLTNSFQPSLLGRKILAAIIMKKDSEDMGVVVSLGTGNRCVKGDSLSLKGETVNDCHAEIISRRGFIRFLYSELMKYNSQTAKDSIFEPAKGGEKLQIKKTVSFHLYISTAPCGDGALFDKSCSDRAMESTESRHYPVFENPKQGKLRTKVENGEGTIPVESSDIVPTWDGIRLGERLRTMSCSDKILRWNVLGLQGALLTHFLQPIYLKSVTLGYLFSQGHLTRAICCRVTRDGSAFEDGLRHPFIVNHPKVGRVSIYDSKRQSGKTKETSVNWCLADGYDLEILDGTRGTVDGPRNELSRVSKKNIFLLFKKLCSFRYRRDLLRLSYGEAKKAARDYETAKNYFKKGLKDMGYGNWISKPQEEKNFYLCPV
# Legend:
# ADAR1 = target: T1, ADAR1; assay: EMSA; dose-dependent shift; REMSA/UV: 0.5 pmol 32P probe, 1x REMSA binding buffer (Thermo), 0.1 ug/ul yeast tRNA, room temperature 30 min, 6% native PAGE; pull-down: 250 mM NaCl, 10 mM MgCl2, 50 mM Hepes pH 7.4, 0.5% Igepal CA-630, tRNA, 4 C or RT 30 min; details: protein: recombinant; tags: FLAG; chain copies: 2; label: 5' 32P; hairpin
# ADAR2 = ADAR2 (UniProt P78563 1-741); assay: as above; details: protein: recombinant; tags: FLAG; chain copies: 2; label: 5' 32P; hairpin
binder,measurement,setting,value
GGUAGAAAAGAAAAAUGACACUCGAGUGUUUUUUUCUCUUCUACUU (structured_RNA) [CCDC15 In8-9 WT],binding result,ADAR1,binds
same,binding result,ADAR2,binds
